# According to patent US20070254313A1, “Gnal Splice Variant and Uses Thereof” (AstraZeneca AB, priority 2003, published 2007):
# Experiments:
# Assay in all cases: cell-based or functional assay
# [1] = target: human adenosine A2a receptor (ADORA2A) (human) (UniProt P29274)
# [2] = target: human dopamine D1A receptor (human) (UniProt P21728)
# [3] = target: human β2 adrenergic receptor (human) (UniProt P07550)
# human dopamine D1A receptor (human), sequence (P21728 whole entry): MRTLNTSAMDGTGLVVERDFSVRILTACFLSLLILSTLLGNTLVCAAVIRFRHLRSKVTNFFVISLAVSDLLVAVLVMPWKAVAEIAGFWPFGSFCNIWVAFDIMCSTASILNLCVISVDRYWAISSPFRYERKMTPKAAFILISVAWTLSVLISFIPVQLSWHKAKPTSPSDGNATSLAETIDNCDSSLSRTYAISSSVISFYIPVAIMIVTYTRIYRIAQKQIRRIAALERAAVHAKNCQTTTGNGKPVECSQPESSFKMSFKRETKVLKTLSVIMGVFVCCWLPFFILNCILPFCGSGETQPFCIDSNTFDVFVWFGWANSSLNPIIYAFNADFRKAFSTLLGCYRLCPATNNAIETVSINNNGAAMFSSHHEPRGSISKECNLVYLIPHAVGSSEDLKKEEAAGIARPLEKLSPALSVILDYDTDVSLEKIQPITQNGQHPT
# human adenosine A2a receptor (ADORA2A) (human), sequence (P29274 whole entry): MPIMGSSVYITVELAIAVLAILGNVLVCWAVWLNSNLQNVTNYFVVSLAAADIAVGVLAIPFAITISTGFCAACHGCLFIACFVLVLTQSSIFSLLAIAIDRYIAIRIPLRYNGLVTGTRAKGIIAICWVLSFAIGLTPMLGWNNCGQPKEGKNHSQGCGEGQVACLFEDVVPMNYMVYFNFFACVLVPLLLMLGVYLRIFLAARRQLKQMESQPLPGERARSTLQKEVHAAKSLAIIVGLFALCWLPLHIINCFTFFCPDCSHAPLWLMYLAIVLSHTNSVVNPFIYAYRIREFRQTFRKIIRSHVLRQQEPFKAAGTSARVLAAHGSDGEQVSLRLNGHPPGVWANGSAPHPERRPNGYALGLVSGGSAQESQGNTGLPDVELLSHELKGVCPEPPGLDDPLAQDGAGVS
binder,measurement,setting,value
human XLGolf protein (protein) MGLCYSLRPLLFGGPGDDPCAASEPPVEDAQPAPAPALAPVRAAARDTARTLLPRGGEGSPACARPKADKPKEKRQRTEQLSAEEREAAKEREAVKEARKVSRGIDRMLRDQKRDLQQTHRLLLLGAGESGKSTIVKQMRILHVNGFNPEEKKQKILDIRKNVKDAIVTIVSAMSTIIPPVPLANPENQFRSDYIKSIAPITDFEYSQEFFDHVKKLWDDEGVKACFERSNEYQLIDCAQYFLERIDSVSLVDYTPTDQDLLRCRVLTSGIFETRFQVDKVNFHMFDVGGQRDERRKWIQCFNDVTAIIYVAACSSYNMVIREDNNTNRLRESLDLFESIWNNRWLRTISIILFLNKQDMLAEKVLAGKSKIEDYFPEYANYTVPEDATPDAGEDPKVTRAKFFIRDLFLRISTATGDGKHYCYPHFTCAVDTENIRRVFNDCRDIIQRMHLKQYELL,"induction of GTPγS agonist signal over baseline, A2a receptor co-expressed with XLGolf in Sf9 cells",[1],3 fold
same,"efficacy (Emax) of dopamine-induced [35S]-GTPγS binding, membranes of Sf9 cells co-expressing DRD1 and XLGolf",[2],404%
same,"magnitude of (-)-isoproterenol-induced GTPγS binding above the baseline, membranes of Sf9 cells expressing β2 receptor and XLGolf (% above the baseline)",[3],700
